In PMC10531710, “Overexpression of the First Peanut-Susceptible Gene, AhS5H1 or AhS5H2, Enhanced Susceptibility to Pst DC3000 in Arabidopsis” (International Journal of Molecular Sciences, 2023):

Key:
O=C(O)c1ccccc1O = tested on: T1, O=C(O)c1ccccc1O; assay: purified protein; assay type: biochemical, Arachis hypogaea; settings: 1 mM 2-oxoglutarate, 1 mM ascorbate, 0.4 mM FeSO4, 0.1 mg/mL catalase, 5 mM DTT, 50 mM phosphate pH 6.8, 40 °C, 30 min
T1 construct: full ORF 1014 bp, 338 residues as printed; modified pGEX (GST) vector with C-terminal 3xMyc; E. coli BL21(DE3); glutathione Sepharose purified; tag removal not mentioned

purified protein = substrate: O=C(O)c1ccccc1O; assay: purified protein; assay type: biochemical, Arachis hypogaea; settings: 1 mM 2-oxoglutarate, 1 mM ascorbate, 0.4 mM FeSO4, 0.1 mg/mL catalase, 5 mM DTT, 50 mM phosphate pH 6.8, 40 °C, 30 min

| Molecule | Km (O=C(O)c1ccccc1O) | Km (purified protein) |
| --- | --- | --- |
| AhS5H2 (Arachis hypogaea) | 190.52 ± 26.33 µM |  |
| AhS5H1 (Arachis hypogaea) (protein, full ORF 1059 bp, 353 residues as printed; modified pGEX (GST) vector with C-terminal 3xMyc; E. coli BL21(DE3); glutathione Sepharose purified; tag removal not mentioned) MANTKPLLLADQVTNMKHIPLNFIRPLNDRPNLQNLQSSNDNNESIPIIDLQGLDEDNDASNRSQIIHNIGQACQDYGFFQIVNHGVPEDVVGKMMKVGKAFFDLPESERMKNYSDDPSKTTRLSTSFNVKTEKVANWRDFLRLHCHPLEDYIQEWPTNPPSFREDVGEYSKHMRKLSLKLLEAISESLGLEKDYMEKALGKHGQHMAINYYPPCPEPDLTYGLPAHADPNAITILLQNHVPGLQVLKDGHWVTVKHVPNTFIVNIGDQIQVISNDKYKSVLHRALVNCEKERMSIPTFYCPSPEALVGPAPQLIDQHNDPPKYTNFTYAEYYHKFWNRGLSKETCVDLFKV |  | 44.72 ± 6.95 µM |
